These results are taken from patent publication US9192657B2.

For experiment [1], the target named is T1, PAR-1 N-terminal tail peptide (TR33-62) (artificial).
T1 sequence (peptide): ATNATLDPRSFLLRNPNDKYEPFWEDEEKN

Experiment [2] has as its target endothelial protein C receptor (EPCR), as in the binding assays (Homo sapiens (Human)) (UniProt Q9UNN8). Description: apparent Kd; binding to immobilized soluble EPCR and to K293 cells transfected with wtEPCR (format of the value not told).
The target in experiment [3] is endothelial protein C receptor (EPCR) on cells (Homo sapiens (Human)) (UniProt Q9UNN8).
Experiment [4] addresses T1, PAR-1 N-terminal tail peptide (TR33-62) (artificial). This is another data set of the same source.

In experiment [1], S360A-APC (enzyme) showed a PAR-1 peptide (TR33-62) cleavage (% rwt-APC), catalytic efficiency by HPLC of under 3 % rwt-APC.

Take “PTGla-APC (APC with prothrombin residues 1-46) (from UniProt P00734) (enzyme)”: the Kd in experiment [2] is over 300 nM. For the same substance, the concentration for half-maximal inhibition of staurosporine-induced endothelial apoptosis (fold higher concentration) in experiment [3] came to 24.

RR229/230AA-APC (enzyme) gave a PAR-1 peptide (TR33-62) cleavage (% rwt-APC), catalytic efficiency by HPLC in experiment [1] of 116 % rwt-APC.

In turn, “recombinant wild-type activated protein C (enzyme)” gave a cleavage of the TR33-62 peptide at Arg41, HPLC (fold lower kcat/Km than thrombin) in experiment [4] of 25000.
